Source: publication PMC12350261

Tests used:
[1] = molecular target: human D-glucuronyl C5-epimerase Glce^167-617 (human); assay: crystal structure; apo Glce^167-617, sitting-drop vapour diffusion at 20 C, 0.2 M ammonium sulfate, 0.1 M Tris pH 8.5, 22% PEG 3,350; space group C 1 2 1, two molecules in the asymmetric unit; 2.88 A
[2] = molecular target: human D-glucuronyl C5-epimerase Glce^167-617 (human); assay: SEC; Superdex 200 10/300 GL, 18 C, 20 mM Tris-HCl pH 8.0, 200 mM NaCl, 1 mM DTT, 100 ug loaded, calibrated with gel filtration standard; apparent molecular weight
[3] = molecular target: human D-glucuronyl C5-epimerase Glce^167-617 (human); assay: dynamic light scattering; DynaPro NanoStar, room temperature, 2 uM Glce^167-617; hydrodynamic radius turned into an estimated molecular weight

Measured: stoichiometry N

human D-glucuronyl C5-epimerase Glce^167-617 (domain or fragment)
2: all assays above
